Results as given in the supplement of paper PMC9732359.
± gives the uncertainty stated by the source.

Test: protein stability index of a GFP-peptide fusion (yeast GPS) (PSI 1-4); higher = more stable; sorted into four equal gates, so the index is relative within each strain
How it was run: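 Tiled yeast protein peptides of 17 residues were each joined downstream of GFP, on plasmids that also express Cherry. The pooled library was maintained in yeast, and mid-log cultures in leucine-free medium were sorted into four equal gates on the GFP/Cherry ratio. Plasmids from every gate were amplified by PCR and sequenced on Illumina, with barcodes linking reads to strains. The protein stability index of a peptide is its gate-number-weighted read frequency summed over the gates.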

FDGFLFGSRVMIAKEVK [FAS1]
protein stability index (doa10∆): 2.58 ± 0.15
protein stability index (pdr5∆): 1.56 ± 0.18
protein stability index (ubr1∆): 2.55 ± 0.074

FDIIEESFKGLQPFWFR [ECM29]
protein stability index (doa10∆): 2.63 ± 0.11
protein stability index (pdr5∆): 2.58 ± 0.15
protein stability index (san1∆): 2.35 ± 0.17
protein stability index (ubr1∆): 2.21 ± 0.11

FDNYQRNNFLAENSHTQ [PUP1]
protein stability index (doa10∆): 3.3 ± 0.081
protein stability index (pdr5∆): 3.26 ± 0.075
protein stability index (san1∆): 3.17 ± 0.058
protein stability index (ubr1∆): 3.19 ± 0.044

FDTVSNKLFTEPIKLEP [YMR129W/POM152]
protein stability index (doa10∆): 2.58 ± 0.046
protein stability index (pdr5∆): 2.7 ± 0.065
protein stability index (san1∆): 2.64 ± 0.057
protein stability index (ubr1∆): 2.91 ± 0.036

FEASCMEGQKLDDPVLN [YJR042W/NUP85]
protein stability index (doa10∆): 1.83 ± 0.088
protein stability index (pdr5∆): 1.76 ± 0.086
protein stability index (san1∆): 1.45 ± 0.21
protein stability index (ubr1∆): 1.53 ± 0.061

FEGTPPFSLTYVRTEET [YMR129W/POM152]
protein stability index (doa10∆): 2.31 ± 0.052
protein stability index (pdr5∆): 2.63 ± 0.056
protein stability index (san1∆): 2.54 ± 0.059
protein stability index (ubr1∆): 2.6 ± 0.041

FEGWGHEYIRHLALEIG [RPN1]
protein stability index (doa10∆): 2.18 ± 0.098
protein stability index (pdr5∆): 2.06 ± 0.071
protein stability index (san1∆): 2.41 ± 0.12
protein stability index (ubr1∆): 2.1 ± 0.083

FEKKLSIIKAKLPLLNE [YML103C/NUP188]
protein stability index (doa10∆): 2.34 ± 0.095
protein stability index (pdr5∆): 1.98 ± 0.13
protein stability index (san1∆): 1.85 ± 0.23
protein stability index (ubr1∆): 1.69 ± 0.068

FELFDNKTAHLSIPGKS [SNU114]
protein stability index (doa10∆): 2.11 ± 0.04
protein stability index (pdr5∆): 2.11 ± 0.055
protein stability index (san1∆): 2.25 ± 0.058
protein stability index (ubr1∆): 2.1 ± 0.031

FEQDSHLRYQPDGVVVH [SNF6]
protein stability index (doa10∆): 3.09 ± 0.087
protein stability index (pdr5∆): 3.1 ± 0.078
protein stability index (san1∆): 3.07 ± 0.046
protein stability index (ubr1∆): 3.09 ± 0.061

FEQTAFSRHAQQQTSTF [SIR4]
protein stability index (doa10∆): 1.94 ± 0.07
protein stability index (pdr5∆): 2.32 ± 0.092
protein stability index (san1∆): 1.79 ± 0.093
protein stability index (ubr1∆): 2.01 ± 0.055

FETFLVDVNNKFIALCE [SIN4]
protein stability index (doa10∆): 2.94 ± 0.062
protein stability index (pdr5∆): 3.05 ± 0.049
protein stability index (san1∆): 3.09 ± 0.045
protein stability index (ubr1∆): 3.1 ± 0.059

FEYVLYPSKTLKTDGVR [FAS2]
protein stability index (doa10∆): 2.42 ± 0.08
protein stability index (pdr5∆): 2.96 ± 0.069
protein stability index (san1∆): 2.26 ± 0.099
protein stability index (ubr1∆): 2.75 ± 0.081

FFLGYMINRLLLCALDR [RPB2]
protein stability index (doa10∆): 1.51 ± 0.17
protein stability index (ubr1∆): 1.68 ± 0.12

FFLQRKLRSELGYKDTS [BRR2]
protein stability index (doa10∆): 2.11 ± 0.091
protein stability index (pdr5∆): 1.53 ± 0.071
protein stability index (san1∆): 1.71 ± 0.12
protein stability index (ubr1∆): 1.35 ± 0.18

FFNGKALNNAIPGGPKF [PRP8]
protein stability index (doa10∆): 3.29 ± 0.13
protein stability index (pdr5∆): 3.02 ± 0.16
protein stability index (san1∆): 2.87 ± 0.17
protein stability index (ubr1∆): 2.94 ± 0.1

FFRNKLKYHDFLRKATA [RPL16B]
protein stability index (doa10∆): 2.02 ± 0.085
protein stability index (pdr5∆): 2.48 ± 0.086
protein stability index (san1∆): 2.4 ± 0.079
protein stability index (ubr1∆): 2.23 ± 0.072

FGHLMHYGNEHIRRMVP [RPN1]
protein stability index (doa10∆): 1.71 ± 0.042
protein stability index (pdr5∆): 1.82 ± 0.039
protein stability index (san1∆): 1.6 ± 0.063
protein stability index (ubr1∆): 1.96 ± 0.034

FGNIMDNLLEMSDHSLD [RRP6]
protein stability index (doa10∆): 2.42 ± 0.074
protein stability index (pdr5∆): 2.58 ± 0.065
protein stability index (san1∆): 1.89 ± 0.1
protein stability index (ubr1∆): 3.27 ± 0.05

FGPHVDVNDVLTKYIRS [GRR1]
protein stability index (doa10∆): 3.3 ± 0.056
protein stability index (pdr5∆): 3.2 ± 0.061
protein stability index (san1∆): 3.41 ± 0.046
protein stability index (ubr1∆): 3.29 ± 0.04

FGQASGASTGNANTGFS [YGL172W/NUP49]
protein stability index (doa10∆): 3.18 ± 0.28
protein stability index (pdr5∆): 3.39 ± 0.17

FGQDVSPMINSTSSGKV [SNM1]
protein stability index (doa10∆): 2.81 ± 0.1
protein stability index (pdr5∆): 3.32 ± 0.077
protein stability index (san1∆): 2.74 ± 0.067
protein stability index (ubr1∆): 3.02 ± 0.057

FGSADDTYPYLTGEWST [FAS1]
protein stability index (doa10∆): 2.32 ± 0.067
protein stability index (pdr5∆): 1.32 ± 0.047
protein stability index (san1∆): 1.21 ± 0.086
protein stability index (ubr1∆): 1.28 ± 0.072

FGSKPTGATSLFGSSNN [YGL172W/NUP49]
protein stability index (doa10∆): 3.39 ± 0.11
protein stability index (pdr5∆): 3.59 ± 0.11
protein stability index (san1∆): 3.54 ± 0.044
protein stability index (ubr1∆): 3.64 ± 0.1

FGYPETIANSIILHFAN [YMR153W/NUP53]
protein stability index (doa10∆): 2.05 ± 0.062
protein stability index (pdr5∆): 2.23 ± 0.067
protein stability index (san1∆): 1.88 ± 0.09
protein stability index (ubr1∆): 2.15 ± 0.066

FHGTSTKANDKNESATI [FAS2]
protein stability index (doa10∆): 3.06 ± 0.12
protein stability index (pdr5∆): 2.8 ± 0.094
protein stability index (san1∆): 2.95 ± 0.075
protein stability index (ubr1∆): 2.91 ± 0.1

FHSEPDRDENWIHVSCL [LIN1]
protein stability index (doa10∆): 3.16 ± 0.075
protein stability index (pdr5∆): 3.27 ± 0.054
protein stability index (san1∆): 3.07 ± 0.045
protein stability index (ubr1∆): 3.13 ± 0.039

FICSIIQTVVISLLALP [YML031W/NDC1]
protein stability index (doa10∆): 1.43 ± 0.11
protein stability index (pdr5∆): 1.36 ± 0.076
protein stability index (san1∆): 1.34 ± 0.11
protein stability index (ubr1∆): 2.12 ± 0.11

FIDHHAAIRQPTRYVLI [POP1]
protein stability index (doa10∆): 1.72 ± 0.066
protein stability index (pdr5∆): 2.08 ± 0.073
protein stability index (san1∆): 1.77 ± 0.098
protein stability index (ubr1∆): 1.4 ± 0.047

FIDSICKLFDKISFNLR [SRB8]
protein stability index (doa10∆): 2.23 ± 0.054
protein stability index (pdr5∆): 2.23 ± 0.046
protein stability index (san1∆): 1.96 ± 0.063
protein stability index (ubr1∆): 1.98 ± 0.053

FIKVVNYNHLLPTRYTL [RPL27A]
protein stability index (doa10∆): 2.34 ± 0.06
protein stability index (pdr5∆): 2.25 ± 0.076
protein stability index (san1∆): 2.07 ± 0.098
protein stability index (ubr1∆): 2.18 ± 0.067

FILLDRLRQFNLQPIST [SMC4]
protein stability index (doa10∆): 2.22 ± 0.04
protein stability index (pdr5∆): 1.56 ± 0.037
protein stability index (san1∆): 1.49 ± 0.061
protein stability index (ubr1∆): 1.32 ± 0.042

FINNVLSNPSNQNICTS [GRR1]
protein stability index (doa10∆): 2.42 ± 0.074
protein stability index (pdr5∆): 2.31 ± 0.033
protein stability index (san1∆): 2.53 ± 0.054
protein stability index (ubr1∆): 2.47 ± 0.037

FITAKDKYKLYPVRIPR [YJR042W/NUP85]
protein stability index (doa10∆): 2.87 ± 0.06
protein stability index (pdr5∆): 2.73 ± 0.087
protein stability index (san1∆): 3.06 ± 0.077
protein stability index (ubr1∆): 2.89 ± 0.069

FIYGMSAKDHPKVKEIK [PRP8]
protein stability index (doa10∆): 2.53 ± 0.25
protein stability index (pdr5∆): 3.12 ± 0.19
protein stability index (san1∆): 2.72 ± 0.23
protein stability index (ubr1∆): 3.33 ± 0.16

FKDRFKDEPVQNDILQE [FAS2]
protein stability index (doa10∆): 3.35 ± 0.13
protein stability index (pdr5∆): 3.03 ± 0.15
protein stability index (san1∆): 3.23 ± 0.072
protein stability index (ubr1∆): 3.46 ± 0.092

FKGHSHIVQDCTLTADG [ASC1]
protein stability index (doa10∆): 1.67 ± 0.066
protein stability index (pdr5∆): 2.04 ± 0.087
protein stability index (san1∆): 2.06 ± 0.16
protein stability index (ubr1∆): 1.55 ± 0.065

FKHGPMSLINDAMVTRT [SMD2]
protein stability index (doa10∆): 2.9 ± 0.11
protein stability index (pdr5∆): 2.43 ± 0.09
protein stability index (san1∆): 2.76 ± 0.093
protein stability index (ubr1∆): 3.01 ± 0.085

FKIHTAKVKKTGEFDFE [RPT4]
protein stability index (doa10∆): 2.3 ± 0.11
protein stability index (pdr5∆): 3.06 ± 0.12
protein stability index (san1∆): 2.29 ± 0.17
protein stability index (ubr1∆): 2.81 ± 0.12

FKIWHGEINKICMESLF [PCI8]
protein stability index (doa10∆): 1.83 ± 0.1
protein stability index (pdr5∆): 1.46 ± 0.056
protein stability index (san1∆): 1.42 ± 0.1
protein stability index (ubr1∆): 1.87 ± 0.058

FKKAAPSPISHVAEIRS [RPB2]
protein stability index (doa10∆): 1.92 ± 0.051
protein stability index (pdr5∆): 1.94 ± 0.046
protein stability index (san1∆): 1.77 ± 0.058
protein stability index (ubr1∆): 1.81 ± 0.036

FKKDFEVNISSLDAREA [RPC40]
protein stability index (doa10∆): 2.07 ± 0.059
protein stability index (pdr5∆): 1.58 ± 0.067
protein stability index (san1∆): 1.98 ± 0.1
protein stability index (ubr1∆): 2.16 ± 0.092

FKKDLVIVLSNISHLLE [SWI1]
protein stability index (doa10∆): 1.86 ± 0.048
protein stability index (pdr5∆): 1.63 ± 0.067
protein stability index (san1∆): 1.75 ± 0.078
protein stability index (ubr1∆): 1.93 ± 0.061

FKKLTKDIFRYMQRTVE [RPB2]
protein stability index (doa10∆): 1.63 ± 0.045
protein stability index (pdr5∆): 1.4 ± 0.034
protein stability index (san1∆): 1.25 ± 0.087
protein stability index (ubr1∆): 1.36 ± 0.033

FKLGKFNYVAVGDVSNL [QCR2]
protein stability index (doa10∆): 3.28 ± 0.1
protein stability index (pdr5∆): 2.01 ± 0.1
protein stability index (san1∆): 2.38 ± 0.14
protein stability index (ubr1∆): 2.83 ± 0.068

FKNDFNSFYYTSLLYLS [RPN9]
protein stability index (doa10∆): 1.33 ± 0.049
protein stability index (pdr5∆): 1.81 ± 0.073
protein stability index (san1∆): 2.19 ± 0.11
protein stability index (ubr1∆): 1.25 ± 0.099

FKQAKERVMKNKVEENL [RPT2]
protein stability index (doa10∆): 3.11 ± 0.11
protein stability index (pdr5∆): 3.27 ± 0.061
protein stability index (san1∆): 3 ± 0.14
protein stability index (ubr1∆): 3.29 ± 0.11

FKVRTNLNDKFGIYILT [MED1]
protein stability index (doa10∆): 1.76 ± 0.05
protein stability index (pdr5∆): 1.87 ± 0.046
protein stability index (san1∆): 1.98 ± 0.098
protein stability index (ubr1∆): 1.92 ± 0.042

FKYVSVRYEEKRELKQL [BRR2]
protein stability index (doa10∆): 2.63 ± 0.068
protein stability index (pdr5∆): 2.93 ± 0.056
protein stability index (san1∆): 2.93 ± 0.067
protein stability index (ubr1∆): 3.13 ± 0.05

FLFHAISGREGLVDTAV [RPO31]
protein stability index (pdr5∆): 2.89 ± 0.28
protein stability index (ubr1∆): 2.55 ± 0.13

FLGEQVNEPTKNEEAEI [RPN1]
protein stability index (ubr1∆): 3.56 ± 0.26

FLIDVLKIYAQIEKKEI [YCG1]
protein stability index (doa10∆): 1.26 ± 0.07
protein stability index (pdr5∆): 1.93 ± 0.063
protein stability index (san1∆): 1.21 ± 0.11
protein stability index (ubr1∆): 1.4 ± 0.054

FLLEKAGERKIPHDLNF [TAF14]
protein stability index (doa10∆): 2.43 ± 0.067
protein stability index (pdr5∆): 2.71 ± 0.062
protein stability index (san1∆): 2.61 ± 0.051
protein stability index (ubr1∆): 2.47 ± 0.046
